In PMC7611158 (Molecular cancer therapeutics, 2019):

Tests used:
[1] = biological target: hJAG1 DSL-EGF1-3 protein (Homo sapiens, UniProt P78504); test: SPR
[2] = biological target: human JAGGED2 (hJAG2), on transfected HEK293 cells (Homo sapiens, UniProt Q9Y219); test: flow cytometry on cells
[3] = biological target: human DLL4 (hDLL4), on transfected B16F10 cells (Homo sapiens, UniProt Q9NR61); test: flow cytometry on cells
[4] = biological target: murine Jagged1 (mJag1), on transfected B16F10 cells (mouse, UniProt Q9QXX0); test: flow cytometry on cells
murine Jagged1 (mJag1), on transfected B16F10 cells, sequence (Q9QXX0 34-1218, one chain of several): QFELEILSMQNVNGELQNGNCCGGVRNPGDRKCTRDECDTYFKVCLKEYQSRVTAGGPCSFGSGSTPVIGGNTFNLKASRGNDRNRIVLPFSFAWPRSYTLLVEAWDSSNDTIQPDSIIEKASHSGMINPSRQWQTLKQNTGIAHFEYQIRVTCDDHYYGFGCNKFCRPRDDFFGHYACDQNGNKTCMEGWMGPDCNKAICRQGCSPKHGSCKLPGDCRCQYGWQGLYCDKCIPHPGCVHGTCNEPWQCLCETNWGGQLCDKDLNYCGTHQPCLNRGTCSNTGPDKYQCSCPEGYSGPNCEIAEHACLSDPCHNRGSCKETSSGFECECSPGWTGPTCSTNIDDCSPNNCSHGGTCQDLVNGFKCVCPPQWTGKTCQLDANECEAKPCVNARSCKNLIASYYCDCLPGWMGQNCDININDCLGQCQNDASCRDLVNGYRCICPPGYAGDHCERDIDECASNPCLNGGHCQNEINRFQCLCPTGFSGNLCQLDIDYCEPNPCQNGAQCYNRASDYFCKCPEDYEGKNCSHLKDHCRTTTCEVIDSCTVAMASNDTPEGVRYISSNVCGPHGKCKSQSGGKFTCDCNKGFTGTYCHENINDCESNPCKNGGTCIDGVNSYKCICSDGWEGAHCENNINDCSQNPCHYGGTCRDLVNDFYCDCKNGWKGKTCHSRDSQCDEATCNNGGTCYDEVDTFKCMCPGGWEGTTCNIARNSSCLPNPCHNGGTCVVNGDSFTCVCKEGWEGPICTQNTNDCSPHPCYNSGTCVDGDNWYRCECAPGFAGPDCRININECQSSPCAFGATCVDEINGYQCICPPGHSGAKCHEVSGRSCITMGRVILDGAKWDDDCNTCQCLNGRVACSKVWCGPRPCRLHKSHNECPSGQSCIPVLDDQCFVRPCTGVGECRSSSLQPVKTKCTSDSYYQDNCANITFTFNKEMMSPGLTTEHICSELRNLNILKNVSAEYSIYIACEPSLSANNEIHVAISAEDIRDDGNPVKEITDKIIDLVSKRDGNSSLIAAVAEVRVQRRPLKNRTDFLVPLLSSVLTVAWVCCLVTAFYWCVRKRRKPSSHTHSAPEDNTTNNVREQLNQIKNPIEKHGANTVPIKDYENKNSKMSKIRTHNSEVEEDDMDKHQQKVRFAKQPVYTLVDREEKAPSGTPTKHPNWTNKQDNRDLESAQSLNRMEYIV

[5] = biological target: JAG1 (target of the affinity printed for hJ1-65Dv9) (UniProt P78504)
JAG1 (target of the affinity printed for hJ1-65Dv9), sequence (P78504 34-1218): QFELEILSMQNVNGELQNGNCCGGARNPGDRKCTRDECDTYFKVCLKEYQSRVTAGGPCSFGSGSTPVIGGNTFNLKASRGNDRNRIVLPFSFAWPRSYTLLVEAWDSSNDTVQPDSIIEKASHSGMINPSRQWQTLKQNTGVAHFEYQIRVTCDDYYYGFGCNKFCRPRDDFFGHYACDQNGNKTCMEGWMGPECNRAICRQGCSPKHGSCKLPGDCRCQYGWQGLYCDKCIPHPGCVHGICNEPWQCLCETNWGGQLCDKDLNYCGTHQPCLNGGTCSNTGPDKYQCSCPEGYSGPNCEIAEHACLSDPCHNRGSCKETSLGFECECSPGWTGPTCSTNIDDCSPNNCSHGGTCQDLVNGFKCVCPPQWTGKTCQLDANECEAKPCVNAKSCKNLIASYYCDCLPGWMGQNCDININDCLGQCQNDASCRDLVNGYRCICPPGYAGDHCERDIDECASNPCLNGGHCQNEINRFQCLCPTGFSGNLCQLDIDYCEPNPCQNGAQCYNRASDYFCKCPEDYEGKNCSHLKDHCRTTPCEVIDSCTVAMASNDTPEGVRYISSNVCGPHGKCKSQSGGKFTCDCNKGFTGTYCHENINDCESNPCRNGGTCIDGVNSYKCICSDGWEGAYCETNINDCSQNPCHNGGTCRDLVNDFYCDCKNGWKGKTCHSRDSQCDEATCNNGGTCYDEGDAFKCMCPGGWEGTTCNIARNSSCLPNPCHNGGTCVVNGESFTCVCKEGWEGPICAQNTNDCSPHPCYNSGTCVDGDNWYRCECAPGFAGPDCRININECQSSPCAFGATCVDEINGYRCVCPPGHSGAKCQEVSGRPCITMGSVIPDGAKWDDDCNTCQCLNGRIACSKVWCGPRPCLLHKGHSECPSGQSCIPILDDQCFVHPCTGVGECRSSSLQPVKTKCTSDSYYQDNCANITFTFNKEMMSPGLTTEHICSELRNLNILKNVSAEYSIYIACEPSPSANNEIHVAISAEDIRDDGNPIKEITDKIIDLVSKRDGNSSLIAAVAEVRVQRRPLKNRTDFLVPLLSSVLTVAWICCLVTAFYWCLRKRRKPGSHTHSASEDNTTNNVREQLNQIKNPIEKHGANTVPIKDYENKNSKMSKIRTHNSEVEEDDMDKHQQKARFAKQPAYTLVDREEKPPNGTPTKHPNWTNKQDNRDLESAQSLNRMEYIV

human JAGGED2 (hJAG2), on transfected HEK293 cells, sequence (Q9Y219 24-1238): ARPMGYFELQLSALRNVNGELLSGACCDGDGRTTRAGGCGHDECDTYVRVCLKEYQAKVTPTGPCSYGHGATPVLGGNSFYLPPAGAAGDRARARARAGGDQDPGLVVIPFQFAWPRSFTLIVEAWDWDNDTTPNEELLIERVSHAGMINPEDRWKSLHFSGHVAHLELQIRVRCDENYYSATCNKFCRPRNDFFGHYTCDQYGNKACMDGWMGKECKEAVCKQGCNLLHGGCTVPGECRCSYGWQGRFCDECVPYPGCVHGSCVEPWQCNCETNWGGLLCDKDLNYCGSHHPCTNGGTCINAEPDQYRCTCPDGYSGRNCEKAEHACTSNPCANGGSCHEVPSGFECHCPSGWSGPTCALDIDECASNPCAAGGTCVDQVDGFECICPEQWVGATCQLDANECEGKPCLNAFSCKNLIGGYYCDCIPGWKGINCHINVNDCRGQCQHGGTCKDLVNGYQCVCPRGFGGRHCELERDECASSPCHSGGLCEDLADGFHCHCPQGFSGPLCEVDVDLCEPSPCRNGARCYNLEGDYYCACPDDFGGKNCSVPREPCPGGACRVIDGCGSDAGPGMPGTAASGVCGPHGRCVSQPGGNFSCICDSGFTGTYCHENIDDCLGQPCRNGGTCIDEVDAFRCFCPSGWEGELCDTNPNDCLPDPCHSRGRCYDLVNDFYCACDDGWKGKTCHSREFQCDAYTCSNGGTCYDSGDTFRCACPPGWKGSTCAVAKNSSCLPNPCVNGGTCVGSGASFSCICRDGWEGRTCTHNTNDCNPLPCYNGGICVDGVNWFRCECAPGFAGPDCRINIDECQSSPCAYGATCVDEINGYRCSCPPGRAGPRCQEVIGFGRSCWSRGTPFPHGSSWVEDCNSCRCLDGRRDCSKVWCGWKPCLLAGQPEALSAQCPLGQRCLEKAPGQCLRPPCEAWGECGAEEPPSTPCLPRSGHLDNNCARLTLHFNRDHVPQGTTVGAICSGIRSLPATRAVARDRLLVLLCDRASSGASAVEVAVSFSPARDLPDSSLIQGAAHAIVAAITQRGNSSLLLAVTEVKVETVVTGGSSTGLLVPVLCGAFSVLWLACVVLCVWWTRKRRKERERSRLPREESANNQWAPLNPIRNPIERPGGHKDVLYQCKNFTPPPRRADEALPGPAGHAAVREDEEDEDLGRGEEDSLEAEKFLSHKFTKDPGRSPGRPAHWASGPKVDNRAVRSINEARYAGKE
hJAG1 DSL-EGF1-3 protein, sequence (P78504 185-335): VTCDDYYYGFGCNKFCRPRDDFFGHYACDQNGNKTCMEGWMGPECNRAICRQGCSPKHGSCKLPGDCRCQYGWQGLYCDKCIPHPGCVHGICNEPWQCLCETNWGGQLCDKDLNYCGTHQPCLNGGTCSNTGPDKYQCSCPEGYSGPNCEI
human DLL4 (hDLL4), on transfected B16F10 cells, sequence (Q9NR61 27-685, one chain of several): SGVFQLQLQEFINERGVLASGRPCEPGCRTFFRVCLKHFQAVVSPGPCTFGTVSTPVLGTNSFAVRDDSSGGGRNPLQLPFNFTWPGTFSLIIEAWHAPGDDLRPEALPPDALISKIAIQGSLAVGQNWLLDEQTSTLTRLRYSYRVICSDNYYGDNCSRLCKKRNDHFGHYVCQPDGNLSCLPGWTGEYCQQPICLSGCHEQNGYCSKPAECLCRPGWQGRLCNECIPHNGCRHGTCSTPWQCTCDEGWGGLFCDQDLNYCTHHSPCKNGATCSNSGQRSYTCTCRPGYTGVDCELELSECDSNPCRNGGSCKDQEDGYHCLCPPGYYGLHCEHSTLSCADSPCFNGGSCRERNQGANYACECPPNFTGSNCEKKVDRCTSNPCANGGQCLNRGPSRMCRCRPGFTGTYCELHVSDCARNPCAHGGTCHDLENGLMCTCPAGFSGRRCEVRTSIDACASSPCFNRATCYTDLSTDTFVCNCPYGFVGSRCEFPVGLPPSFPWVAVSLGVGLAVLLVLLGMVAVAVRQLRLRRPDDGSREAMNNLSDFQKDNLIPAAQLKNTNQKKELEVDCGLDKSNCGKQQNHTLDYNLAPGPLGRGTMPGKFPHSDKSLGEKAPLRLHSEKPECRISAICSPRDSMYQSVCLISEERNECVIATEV

B1: J1-65D (antibody, V domains shown)
VH: QVQLQQPGAELVRPGASVKLSCKALGYTFTDYEMHWVKETPVHGLEWIGAIQPGGGGTAYNQKFKGKATLTADKSSSTAYMELSSLTSEDSAVYYCTRRGYDDYPFAYWGQGTLVTVSS
VL: DIQLTQSPASLSASVGETVTITCRASGNIHNYLAWYQQKQGKSPQLLVYNAKTLADDIPSRFSGSGSGTQYSLKINSLQPEDFGSYYCQHFWSAPWTFGGGTKLEIK
[1]
  Kd: 9.7 nM
[2]
  binding result: no binding
[3]
  binding result: no binding
[4]
  binding result: no binding

B2: hJ1-65Dv9 (antibody, V domains shown)
VH: QVQLVQSGAELKKPGSSVKVSCKASGYTFTDYEMHWVRQAPGQGLEWMGAIQPGGGGTAYNQKFKGRVTLTADKSTSTAYMELSSLRSEDTAVYYCTRRGYDDYPFAYWGQGTLVTVSS
VL: DIQMTQSPSSLSASVGDRVTITCRASGNIHNYLAWYQQKPGKAPKLLIYNAKTLADAVPSRFSGSGSGTDYTLTISSLQPEDFATYYCQHFWSAPWTFGQGTKLEIK
[5]
  Kd: 0.0139 nM

B3: J1-183D (antibody, V domains shown)
VH: QVQLQQPGTELVRPGVSVKISCKVSGYAFTDYAIHWIMQSHAKSLEWIGIINTYYGDSKYNQKFKDKATMTVDKSSNTAYMELARLTSEDSAIYYCARGYDGFAYWGQGTLVTVSS
VL: DIQLTQSPASLSASVGETVTFTCRTSENIYSYLTWYQQKQGKSPQLLVYNAKILAAGVPSRFSGYGSGTQFSLKINSLQPEDFGTYYCQHHYDIPWTFGGGTKLEIK
[1]
  Kd: 4.9 nM
[2]
  binding result: no binding
[3]
  binding result: no binding
[4]
  binding result: no binding
